Source: the DeepSol protein solubility set

assay: soluble on expression in E. coli; label from the status in PepcDB or PDB records

Sequence | soluble on expression in E. coli
MSLKQEKLALVESALEDFYGDQQFASSLRESVLYSIHAGGKRIRPFLLLEVLEALQVTIKPAHAQVATALEMIHTGSLIHDDLPAMDDDDYRRGRLTNHKKFGEAMAILAGDALFLDSYALIAQADLPSQIKVDLIANLSLASGSLGMVAGQVLDMEGEHQHLSLEELQTIHANKTGKLLAYPFQAAAIIAELSPEMQVKLKTVGELIGLAFQVRDDVLDVTASFEEIGKTPQKDLQAEKSTYPALLGLEESIAFCNQTLDQANEKLEEIAQQLPFETESIVSVVESLRINGEGHHHHHH | soluble
MSLKQKILIVEDSLTIRRMLIQAIAQQTGLEIDAFDTLEGARHCRGEEYVVALVDLTLPDAPSGEAVKVLLERGLPVVILTADISEEKRAAWLEAGVLDYVMKDSRHSLQYAVSLVHRLYLNQRIEVLVVDDSRTSRHRTMAQLRKQLLQVHEASHAREALAQLEQNPAIRLVLVDYYMPEIDGISLVRMLRERYSKQQLAIIGISVSDKRGLSARYLKQGANDFLNQPFEPEELQCRVSHNLEALEQFNSIQESANRDYLTGLYNRRYWFNEGQKWFEEHQRQETPLALCVLDVDHFKQVNDHWGHAIGDQLLCHLTRLLTQFFPDAMIARFGGEEFALMVPHCTVPVLLKRLEGLRQQMRQQPLSRETPLFVRASFGVIKVGRGSMDEALSEADRLLYQAKNTGRDKIVSQDSSEGHHHHHH | soluble
MSLKQPTSTTVTRTDYLKHKVKVPKHPKRIVASYLEDDLVALGIKPVVQWSVKNGSGTQAYLKEQLKGVPLIDYSLPYEAVTKAKPDLILIGTSSAVANGKYAQYNKIAPTYVVKNGTTVTWRQTFLDVAKVVNRQAKAKKVLAKYDKQVQTTRQALKKSGQHKVAVLWVTNNTAYMVNDNSASGALLYQDLQLGEPSLVKQVSKSATADWSAVSLEKLAKLDADDIFLVNSQKSASLFKDPLWKNIKAVKNNHLYQYGDSSSWQYSGPIAYSQMIDMVKTDLLKEGHHHHHH | soluble
MSLKRAIIIGATSGIGKEVAQRLLSEGWQIGIAGRRQSALEEFRQIAPEQIKIQSLDVTQEYSAGKLDALIHQLGGMDLFLLSSGIGFQNMELNMEIELNTARTNVEGFTRMVDTAFSYFRNNGGGHLAVISSIAGTKGLGVAPAYSATKRFQNTYIDALEQLSHLQKLDIHFTDIRPGFVATDLLNDGKHYPMLMKTDQVGRDIVRALHRKQRVAIIDGRYRILVFFWRMIPRWIWKRLPVKTEGHHHHHH | soluble
MSLKRAVISGGAGGLGRALSDALQTRGWHVTLLDRDISAIEPSETQRVIQCDLTDPGQLAAACALAIGPQGVDLAVYNAGITQIGLFADSDEASHRRVFEINYFAAVNMARAMLGPVRQARGTHLAISSVAGFAPLYSRTSYAASKHALEGFFKSLRSEERAHGVAVQIAAPSFVATNLGNAQAQPDGIARPGSATDGMDYMTPEAAAATILRGLDRGRDMIPVGRVARLAWWINRLSPGLYQRLMESKIGREGHHHHHH | soluble
MSLKRKYEDHFKEQAVRLSFERGEISSVERELGINRTSLGKWRKKYEHLKLAPKDAVIIELNKKIKDSLLTLEILKNGSEFAAQGKVMTKRFIENNSSKYPIGKMCALLQISQRAYYKLKKKEISDKQSQIILLKEEVAAVYYEFKKTYGYRKIAKVLQCRGFKVGESQIRIYMNALGLRRRAKSRFTITTDSVHNHYIAQNILNREFTINQPAKAWVSDITYIAAEKGFLYLTIVLDLFDRKIIGWSLADSMSTKETTLPAWEMAVKNRNITQDLIFHSDRGVQYANKIFTETLDSYKFVRRSMSRKQNHNDNAVSESFFGNLKRELINGNKPLPREQMRVQVYQYIENWYNKKRRHSYLNYRTIEEFDKLHEGHHHHHH | not soluble
MSLKRVLLLGGAGFIGYHLGRHLVERSDCRVTLVDNFFRSKQDEELDTLLQSSAVDIVEGDLTERSTFDQLDDEYDHVYALAAVVGVGYTEDMPEEVWRINTAITLNTFEWLRESSVSRVLFASTSETYAGTVEEFGAEIPTPEDVPLSITDITQPRFTYAVTKMLGEAGIAHYAQAYDFEQVTVRFHNVYGPRMGFKHVIPQVVERFHEAEDPFTVYGYDQTRAFCHVDDAVRGVVQAMETPEAAGRTYHIGDDRHEITIETLIRYIGDLMDFHGEYEQGPSHAGSVSRRCPDVDRAREVFGYEPQVHWKEGVRETVEWYADYYRSGREVFEEGHHHHHH | soluble
MSLKSKVLVIDDEPDIRELLTLTLSRMGLICDAVSDFKQGIEHIKQNYYSLVLTDMRLPDGDGIEIVKFIQKYKPQLPVAVITAYGNVEGAVNTLKAGAFDYVSKPVDLKMLRELVKTALSMQNPSTESPDEGLLVGESLIMQQLRESIHKLARSQAPVFIQGDSGVGKELVAQLIHANGPRKDKPFIPVNCGAIPGELMESEFFGHKKGSFTGAISDKTGLFVAAHGGTLFLDEIAELPLAMQVKLLRAIQEKAIKPIGELYEIPVDVRILSASHKNLIEEINAGRFRQDLYYRINVIELRVPTLMERLSDIPCLTEAILKKLSKNQNRNLVKINPSCFEILSRYHFPGNVRELENILERAMAMCEGEVIEPSEGHHHHHH | soluble
MSLKSLEIFSGAGGLAKGLELAGFQHASFIELNKDACNSLRSNFNPKLVYQGDVADFDLSSQEGIEVIAGGPPCQPFSLGGKHLAHEDRRDMFPHAVRYVEYYRPKAFIFENVKGLLRKSFADYFEYILLRLTYPNLGILQNEDWKGHLTRLKEIEFNLYKGIKYKVSYQLLNAADYGVPQKRERVVIVGIRADLDIDWKFPKRTHSEDRLNWEKYVTGEYWEKHNEPKRFNKDIAEKLQKKYGIFEPEKKPWQTVRDTLSDIPHPLGNHKITGHEYRDGARIYPGHTGSGIDEPSKTIKAGGHGVPGGENMIRYDDGTVRYFTSYEAKLLQTFPEEFVISGAWGEAMRQIGNAVPVKLSEILGKHLMGVLSEKSSLHNEGHHHHHH | soluble
MSLKSLSYKRIYKSQEYLATLGTIEYRSLFGSYSLTVDDTVFAMVSDGELYLRACEQSAQYCVKYPPVWLTYKKCGRSVTLNYYRVDESLWRNQLKLVRLSKYSLDAALKEKSTRNTRERLKDLPNMSFHLEAILGEVGIKDVRALRILGAKMCWLRLRQQNSLVTEKILFMLEGAIIGIHEAALPVARRQELAEWADSLTPKQEFPAELEEGHHHHHH | soluble
MSLKTGRTNTIVVLVPNLINPFFMRIIGGIEQAAQERGFTVLLCDTQGESKRESDYASMVLTNRADGLIQLDHSFPFTEDDAKLAETIPMVSVCERIHSDKKYPVVALDNYAASRALAHHLVSYGHTKFAVIVGQVVSQIHKDRLYGLRSVLAEEDIEFDEDMIVGQSYSIENGIEGMRQLLEKPNRPSAVICFNDDIAIGAMHEIHRQGLRVPEDISVVGFDNVKVAAFMNPPLTTIDQPAYEMGRRGMEILSDVINGVPLTRSSEMLPFQLLERESSGEGHHHHHH | not soluble
MSLKTKQEIVENWLPRYTQRQLIDFEPYILLTNFSHYLHVFAEHYGVPIVGEHTSMPNASAEGVTLINFGMGSANAATIMDLLWAIHPKAVIFLGKCGGLKLENALGDYLLPIAAIRGEGTSNDYLPEEVPSLPSFSVLRAISSAIQNKGKDYWTGTVYTTNRRVWEYDEKFKDYLRSTHASGVDMETATLMTVGFANKIPMGALLLISDRPMFPEGVKTEESDQLVTDNFAEEHLMLGIDALEIIRENKSSIKHIRFNWEGHHHHHH | soluble
MSLKTLTRFLIIPMLSVAFFSCSESHFLKDVAYRNQVTQDFEMKKQQLPNGELFAVFNEKLTIPEQEALMFLYAYMPTGDVTDYTGDYYLENVRLSDQARREMPWGKEIPDDVFRHFVLPIRVNNENLDDSRRVFYNELKDRVKNLSLHDAVLEVNHWCHEKVIYTPSDARTSAPLASVKTAYGRCGEESTFTVAALRSVGIPARQVYTPRWAHTDDNHAWVEAWVDGKWYFFGACEPEPVLNLGWFNAPASRGMLMHTKVFGRYTGEGHHHHHH | not soluble
MSLKTTFLEFEQPIAELEAKIEELRFVQDDSAVDISEEISRLAAKSQQLTKDLYATLSPWQVAQIARHPQRPYTLDYVREIFTDFHELHGDRTFADDLSIVGGLARFNGQPCMVIGHQKGRDTKERALRNFGMSKPEGYRKAKRLMELADKFGLPIFTFVDTPGAFPGIEAEERGQSEAIGHNLFVMAGLKVPLIATIIGEGGSGGALAIAVGDSVIMLQFATYAVISPEGCASILWKTAEKAPEAAEALGLTAHRLKALGLIDKIVNEPLGGAHRDPKAMATMLKRALAESLRQFQGMKTSELQARRHERLMAYGKFKETGSNEGHHHHHH | not soluble
MSLKVVKFGGSSLASASQLEKVLNIVKSDSERRFVVVSAPGKRNAEDTKVTDALIKYYRDYVAGNDISKNQSWIIDRYAAMVSELGLKPAVLEKISKSIHALATLPIEENEFLYDTFLAAGENNNAKLIAAYFNQNGIDARYMHPREAGIVVTSEPGHARIIPSSYDKIEELTNTNEVLVIPGFFGVTKENQICTFSRGGSDITGSIIAAGVKADLYENFTDVDGIFAAHPGIIHQPHSIPELTYREMRELAYAGFSVLHDEALLPAYRGKIPLVIKNTNNPDHPGTRIVLKHSNDEFPVVGIAGDSGFVSINMSKYLMNREVGFGRKVLQILEELNIGWEHMPTGIDDLSIILRSRQLTPIKEEEILRQLVQKAKVDHAEIEHDLSIIMIVGEKMKSHIGVTATATRALSENKINIQMMSQGSSEVSIMFVVNKDQEKAAIKALYNAFFGESKEDEGHHHHHH | soluble
MSLKYGHVAWIQQILDGSYADAMNTLKNITVDDSKKGESLSECELHLNVAKLSSLLVEKDNLDINTLRKIQYNLDTIDAEKNISNKLKKGEVQICKRFKNGSIREVFNILVEELKSTTVVNLSDLVELYSMLDDEESLFIPLRLLSVDGNLLNFEVKKFLNALVWRRIVLLNASNEGDKLLQHIVKRVFDEELPKNNDFPLPSVDLLCDKSLLTPEYISETYGRFPIDQNAIREEIYEEISQVETLNSEGHHHHHH | not soluble
MSLLHKDYHHFALTALEERKLAQLPPYSFLSLFRAEANHTAQVEDFLRQVRETLRCNPWFDSECMVLGPTPAPLAKRAGKFRWQLLLQTPNRTLMQKILQSARPALQQLPLASKVRWSIDIDPQDLSEGHHHHHH | soluble
MSLLKKIERAQQLLKKEAAVFRCPTCHEPMHLEGVGLICQQRHQFDLSKKGTLYFLNHGVQTEYNKKMFTSRGKMIQSGMYAPVLNKIMHYLPQNKTVVDVGCGEGSFLAELSQAGLSGLKIGFDLSKEGIYLASNQPIDAFWCVADLTNLPFANEGLDTILNIFSPSHYQEFRRVLKADGTVIKIIPEENYLKELRAAFYPNDEKKQSYSNQKVVQRFAEELAVEVDERITYCFDIPEERRLDLLEMSPLEWQVSQEVKAELQQRPLEKITIDVRLLVGRKREGHHHHHH | soluble
MSLLKQKITQAPKTKISQTLRSWLPILQANIEDLKENLDKFAEDNPFLNVQDSIQTHDKGKNYFDSFYKHNVNSAFVDSKGLAKKSVYELLNEQILPPLFPTNKSQELAKKIIECLNEEGYFEYDEEFLKEYSLEEIERVRARFKFLDPVGVGAKDYKEAFLFALENMELDEDIDEFCRMLIMDFENIQNYTKEPLYKEALAVLKRFSTPPFLEYFEDSRIIVPDIFVYKENGEIKVKINDDYYPEISIQTDGLEHDFLSHYIKEAKNLVDALAMRKATLYKIGLMIVEYQYDFFMGKEIKPMTFKDLALDLERNASTISRAVANKYLSCERGLIPLRDFFAFALDEEGETSNVGVKEFVANLVKNEDRNKPLSDSKILELIKEEFKVDIGRRTITKYRKHLNIASSTDRKKLYELEGEGHHHHHH | soluble
